From article PMC10176472

Tests used:
GST-CDK4 = GST-CDK4 (UniProt P11802); test: MST; microscale thermophoresis of MBP-P16p and MBP-cycP16p with GST-CDK4; three replicate measurements
[1] = target: CDK4 from MCF-7 cell lysate (human (endogenous in MCF-7)) (UniProt P11802)
[2] = target: CDK4 from MCF-7 cell lysate (human (endogenous in MCF-7)) (UniProt P11802); remark: listed apart in the source

Kd (GST-CDK4) [nM] | G0/G1 cell cycle arrest of MCF-7 cells, time course up to 72 h in serum-supplemented medium [1] [%] | G0/G1 cell cycle arrest of MCF-7 cells treated for 24 h with different concentrations, flow cytometry; value at 15 μM [2] [%] | Substance
117 | – | – | MBP-P16p (linear counterpart of MBP-cycP16p) (from UniProt P42771 83-103) (peptide)
– | 88 | 76.7 | bicyclic cycRGD-mCh-cycP16p (from UniProt P42771 83-103)
27.7 | – | – | cyclized MBP-P16p protein (MBP-cycP16p) (from UniProt P42771 83-103) (peptide)
